Experimental data published in the Human Domainome abundance scans (Beltran et al. 2025).

B1: POU domain, class 3, transcription factor 3, residues 320 to 388; numbered along this chain, P20264 (parent)
chain: DDLEQFAKQFKQRRIKLGFTQADVGLALGTLYGNVFSQTTICRFEALQLSFKNMCKLKPLLNKWLEEAD

Variants of: B1
Experiment: abundance fitness (aPCA) (normalised: wild type 0, dead -1); higher = more abundant; growth selection in yeast, the domain comes from the species named
Details: Homo sapiens

Abundance fitness, by site and new letter:
L3: F -0.454 | G -0.758 | I -0.161 | P -0.755 | Q -0.421 | R -0.937 | T -0.981 | V -0.318 | W -0.587 | Y -0.242
A7: C -0.198 | D -0.694 | F -0.642 | G -0.478 | I -0.057 | L -0.908 | M -0.737 | P -0.722 | Q -0.703 | R -0.69 | S 0.117 | T -0.069 | V -0.065 | W -0.87
K8: A 0.001 | D -0.705 | E -0.019 | F -0.439 | G -0.561 | H -0.306 | I 0.162 | L 0.022 | M -0.106 | Q -0.061 | S -0.738 | T -0.475 | V -0.424 | W -0.42
Q9: A -0.241 | C -0.457 | E 0.042 | G -0.205 | I -0.425 | K -0.046 | L -0.223 | M 0.128 | N 0.038 | R -0.222 | S -0.107 | T 0.029 | V -0.231 | W -0.2 | Y 0.052
F10: A -0.776 | C -0.338 | G -0.288 | K -0.365 | M -0.631 | N -0.705 | P -0.896 | Q -0.698 | R -0.543 | S -0.846 | T -0.488 | V -0.885 | W -0.636 | Y -0.631
K11: A -0.298 | G -0.926 | L -0.944 | M -0.386 | P -0.888 | Q -0.106 | R -0.087 | S -0.541 | T -0.39 | V -0.856 | W -0.753
Q12: A -0.1 | C -0.438 | D -0.23 | E -0.044 | F -0.654 | G -0.636 | I -0.594 | K -0.276 | L -0.201 | M -0.409 | P -0.694 | R -0.124 | S -0.143 | T -0.283 | V -0.265 | W -0.146 | Y -0.176
R13: A -0.385 | E -0.311 | G -0.745 | H -0.263 | I -0.771 | K -0.062 | L -0.824 | M -0.578 | N -0.698 | P -0.865 | Q -0.32 | S -0.582 | T -0.561 | V -0.311 | W -0.697 | Y -0.651
R14: A -0.823 | C -0.681 | E -0.859 | F -0.829 | G -0.871 | L -0.783 | M -0.954 | Q -0.861 | S -0.813 | T -0.939 | V -0.751 | W -0.944 | Y -0.764
I15: E 0.058 | F -0.249 | G -0.778 | H -0.875 | K -0.336 | L -0.252 | M -0.426 | P -0.501 | Q -0.052 | R -0.421 | S -0.17 | W -0.751
K16: A 0.004 | C -0.543 | D -0.102 | E -0.382 | F -0.569 | L -0.064 | M -0.282 | Q -0.043 | R -0.088 | S -0.33 | T 0.021 | W -0.696 | Y -0.088
G18: A -0.542 | E -0.893 | H -0.749 | K -0.546 | L -0.935 | M -0.778 | N -0.029 | P -0.964 | Q -0.785 | R -0.532 | S -0.906 | V -0.851 | W -1.06
F19: A -0.243 | E -0.495 | G -1.03 | I 0.119 | K -0.426
